Two substances from doi:10.1101/2022.06.14.496144 can be followed below.

For assay [1], the target named is GlOCPX E25C mutant (Gloeobacter kilaueensis JS1). Nature of the assay: SEC. Background: Size exclusion chromatography separates by hydrodynamic size, large species first.
For assay [2], the target named is Gloeobacter kilaueensis JS1 Orange Carotenoid Protein clade X (GlOCPX), wild type (Gloeobacter kilaueensis JS1). Nature of the assay: SEC.
Assay [3] has the same target. Nature of the assay: SEC-MALS.

In the case of GlOCPX E25C mutant (natural protein), the dimer/monomer ratio in assay [1] is 25%.

In the case of “Gloeobacter kilaueensis JS1 Orange Carotenoid Protein clade X (GlOCPX), wild type (natural protein)”, the dimer/monomer ratio in assay [2] worked out at 5%. For the same substance, in assay [3], the stoichiometry N is 2.

What is called stoichiometry N is a count of units in the complex or per binding partner.
